# Source: patent US20250152742A1, “COMPOSITIONS AND METHODS FOR NEUROLOGICAL DISEASES” (Trames Bio, Inc., priority 2022, published 2025)
# Tested on: engineered chimeric receptor SEQ ID NO: 33 and its mutants (human α7-nAChR ligand binding domain / human GlyRα1 ion pore domain) in Lenti-X 293T cells
# Experiment: YFP fluorescence quenching anion reporter plate reader assay (percent quench, EC50)
# Assay type: cell-based
# Conditions: for YFP fluorescence quenching using CNL001 (percent quench): receptor named in row; for YFP fluorescence quenching using Varenicline, 3 nM var: ligand Varenicline 3 nM; for YFP fluorescence quenching using Varenicline, 30 nM var: ligand Varenicline 30 nM; for YFP fluorescence quenching using Varenicline, 300 nM var: ligand Varenicline 300 nM; for YFP fluorescence quenching using Varenicline, 500 nM var: ligand Varenicline 500 nM; for YFP fluorescence quenching using Varenicline, 1 uM var: ligand Varenicline 1 uM; for EC50: ligand TC-5619, YFP plate reader
# Outline: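 Lenti-X 293T cells co-expressing an anion-quenchable YFP were transiently transfected with receptor DNA, then ligand was added in NaI-substituted buffer (pH 7.2) after 30 min at 37 °C. Fluorescence was read about 2 min; percent quench = mean of last 10 s over 15 s pre-ligand baseline.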
# [1] = 1 nM CNL001, first column so headed
# [2] = 1 nM CNL001, second column so headed
# [3] = 1 nM brd (TC-5619/Bradanicline)
# [4] = 3 nM brd (TC-5619/Bradanicline)
# [5] = 10 nM CNL001, first column so headed
# [6] = 10 nM CNL001, second column so headed
# [7] = 10 nM brd (TC-5619/Bradanicline)
# [8] = 30 nM brd (TC-5619/Bradanicline)
# [9] = 50 nM CNL001, first column so headed
# [10] = 50 nM CNL001, second column so headed
# [11] = 100 nM CNL001, first column so headed
# [12] = 100 nM CNL001, second column so headed
# [13] = 100 nM brd (TC-5619/Bradanicline)
# [14] = 300 nM brd (TC-5619/Bradanicline)
# [15] = 1 uM CNL001, first column so headed
# [16] = 1 uM CNL001, second column so headed
molecule,measurement,setting,value
"CODA1048: engineered receptor: R101F, Y210F in SEQ ID NO: 33 (protein, synthetic sequence of chimeric LGIC) MRCSPGGVWLALAASLLHVSLQGEFQRKLYKELVKNYNPLERPVANDSQPLTVYFSLSLLQIMDVDEKNQVLTTNIWLQMSWTDHYLQWNVSEYPGVKTVFFPDGQIWKPDILLYNSADERFDATFHTNVLVNSSGHCQYLPPGIFKSSCPMDLKNFPMDVQTCKLKFGSWSYGGWSLDLQMQEADISGYIPNGEWDLVGIPGKRSERFFECCKEPYPDVTFTVTMRRRMGYYLIQMYIPSLLIVILSWISFWINMDAAPARVGLGITTVLTMTTQSSGSRASLPKVSYVKAIDIWMAVCLLFVFSALLEYAAVNFVSRQHKELLRFRRKRRHHKSPMLNLFQEDEAGEGRFNFSAYGMGPACLQAKDGISVKGANNSNTTNPPPAPSKSPEEMRKLFIQRAKKIDKISRIGFPMAFLIFNMFYWIIYKIVRREDVHNQ",YFP fluorescence quenching using CNL001 (percent quench),[1],9.114%
same,YFP fluorescence quenching using CNL001 (percent quench),[2],0.845%
same,YFP fluorescence quenching using TC-5619/Bradanicline (percent quench),[3],−2.084%
same,YFP fluorescence quenching using TC-5619/Bradanicline (percent quench),[4],−9.098%
same,YFP fluorescence quenching using CNL001 (percent quench),[5],28.944%
same,YFP fluorescence quenching using CNL001 (percent quench),[6],53.629%
same,YFP fluorescence quenching using TC-5619/Bradanicline (percent quench),[7],−2.587%
same,YFP fluorescence quenching using TC-6683 (percent quench),30 nM TC-6683,−29.055%
same,YFP fluorescence quenching using TC-5619/Bradanicline (percent quench),[8],55.818%
same,YFP fluorescence quenching using CNL001 (percent quench),[9],68.581%
same,YFP fluorescence quenching using CNL001 (percent quench),[10],74.379%
same,YFP fluorescence quenching using ABT-126 (percent quench),50 nM abt (ABT-126),−23.28%
same,YFP fluorescence quenching using CNL001 (percent quench),[11],80.541%
same,YFP fluorescence quenching using CNL001 (percent quench),[12],80.774%
same,YFP fluorescence quenching using ABT-126 (percent quench),100 nM abt (ABT-126),−21.78%
same,YFP fluorescence quenching using TC-5619/Bradanicline (percent quench),[13],76.957%
same,YFP fluorescence quenching using TC-6683 (percent quench),300 nM TC-6683,−33.935%
same,YFP fluorescence quenching using ABT-126 (percent quench),300 nM abt (ABT-126),−19.35%
same,YFP fluorescence quenching using TC-5619/Bradanicline (percent quench),[14],74.268%
same,YFP fluorescence quenching using CNL001 (percent quench),[15],83.143%
same,YFP fluorescence quenching using CNL001 (percent quench),[16],81.751%
same,YFP fluorescence quenching using ABT-126 (percent quench),1 uM abt (ABT-126),−16.33%
same,YFP fluorescence quenching using TC-6683 (percent quench),3 uM TC-6683,−24.613%
same,YFP fluorescence quenching using TC-6683 (percent quench),30 uM TC-6683,−21.752%
same,YFP fluorescence quenching using TC-6683 (percent quench),100 uM TC-6683,−22.815%
same,YFP fluorescence quenching (percent quench),100 uM ach (acetylcholine),−17.31%
same,YFP fluorescence quenching (percent quench),300 uM ach (acetylcholine),−13.7%
same,YFP fluorescence quenching (percent quench),500 uM ach (acetylcholine),−10.1%
same,YFP fluorescence quenching (percent quench),1 mM ach (acetylcholine),5.53%
same,YFP fluorescence quenching (percent quench),3 mM ach (acetylcholine),68.61%
same,YFP fluorescence quenching (percent quench),10 mM ach (acetylcholine),78.22%
same,"YFP fluorescence quenching using Varenicline, 3 nM var",first column,−17.119
same,"YFP fluorescence quenching using Varenicline, 3 nM var",second column,−13.234
same,"YFP fluorescence quenching using Varenicline, 30 nM var",first column,−7.747
same,"YFP fluorescence quenching using Varenicline, 30 nM var",second column,4.193
same,"YFP fluorescence quenching using Varenicline, 300 nM var",first column,4.149
same,"YFP fluorescence quenching using Varenicline, 300 nM var",second column,1.512
same,"YFP fluorescence quenching using Varenicline, 500 nM var",first column,−1.572
same,"YFP fluorescence quenching using Varenicline, 500 nM var",second column,3.71
same,"YFP fluorescence quenching using Varenicline, 1 uM var",first column,8.414
same,"YFP fluorescence quenching using Varenicline, 1 uM var",second column,4.091
"COAD1056 (protein, synthetic sequence of chimeric LGIC) MRCSPGGVWLALAASLLHVSLQGEFQRKLYKELVKNYNPLERPVANDSQPLTVYFSLSLLQIMDVDEKNQVLTTNIWLQMSWTDHYLQWNVSEYPGVKTVFFPDGQIWKPDILLENSADERFDATFHTNVLVNSSGHCQYLPPGIFKSSCPMDLKNFPMDVQTCKLKFGSWSYGGWSLDLQMQEADISGYIPNGEWDLVGIPGKRSERFWECCKEPYPDVTFTVTMRRRMGYYLIQMYIPSLLIVILSWISFWINMDAAPARVGLGITTVLTMTTQSSGSRASLPKVSYVKAIDIWMAVCLLFVFSALLEYAAVNFVSRQHKELLRFRRKRRHHKSPMLNLFQEDEAGEGRFNFSAYGMGPACLQAKDGISVKGANNSNTTNPPPAPSKSPEEMRKLFIQRAKKIDKISRIGFPMAFLIFNMFYWIIYKIVRREDVHNQ",EC50,,25.1 nM
"CODA1054: engineered receptor: R101M, L131F in SEQ ID NO: 33 (protein, synthetic sequence of chimeric LGIC) MRCSPGGVWLALAASLLHVSLQGEFQRKLYKELVKNYNPLERPVANDSQPLTVYFSLSLLQIMDVDEKNQVLTTNIWLQMSWTDHYLQWNVSEYPGVKTVMFPDGQIWKPDILLYNSADERFDATFHTNVFVNSSGHCQYLPPGIFKSSCPMDLKNFPMDVQTCKLKFGSWSYGGWSLDLQMQEADISGYIPNGEWDLVGIPGKRSERFYECCKEPYPDVTFTVTMRRRMGYYLIQMYIPSLLIVILSWISFWINMDAAPARVGLGITTVLTMTTQSSGSRASLPKVSYVKAIDIWMAVCLLFVFSALLEYAAVNFVSRQHKELLRFRRKRRHHKSPMLNLFQEDEAGEGRFNFSAYGMGPACLQAKDGISVKGANNSNTTNPPPAPSKSPEEMRKLFIQRAKKIDKISRIGFPMAFLIFNMFYWIIYKIVRREDVHNQ",YFP fluorescence quenching using CNL001 (percent quench),[1],21.932%
same,YFP fluorescence quenching using CNL001 (percent quench),[2],39.689%
same,YFP fluorescence quenching using TC-5619/Bradanicline (percent quench),[3],6.609%
same,YFP fluorescence quenching using TC-5619/Bradanicline (percent quench),[4],−7.635%
same,YFP fluorescence quenching using CNL001 (percent quench),[5],54.192%
same,YFP fluorescence quenching using CNL001 (percent quench),[6],64.111%
same,YFP fluorescence quenching using TC-5619/Bradanicline (percent quench),[7],4.459%
same,YFP fluorescence quenching using TC-6683 (percent quench),30 nM TC-6683,−22.996%
same,YFP fluorescence quenching using TC-5619/Bradanicline (percent quench),[8],69.782%
same,YFP fluorescence quenching using CNL001 (percent quench),[9],71.409%
same,YFP fluorescence quenching using CNL001 (percent quench),[10],70.989%
same,YFP fluorescence quenching using ABT-126 (percent quench),50 nM abt (ABT-126),−19.54%
same,YFP fluorescence quenching using CNL001 (percent quench),[11],74.148%
same,YFP fluorescence quenching using CNL001 (percent quench),[12],71.722%
same,YFP fluorescence quenching using ABT-126 (percent quench),100 nM abt (ABT-126),−18.28%
same,YFP fluorescence quenching using TC-5619/Bradanicline (percent quench),[13],77.633%
same,YFP fluorescence quenching using TC-6683 (percent quench),300 nM TC-6683,−27.055%
same,YFP fluorescence quenching using ABT-126 (percent quench),300 nM abt (ABT-126),−16.87%
same,YFP fluorescence quenching using TC-5619/Bradanicline (percent quench),[14],72.933%
same,YFP fluorescence quenching using CNL001 (percent quench),[15],71.378%
same,YFP fluorescence quenching using CNL001 (percent quench),[16],71.411%
same,YFP fluorescence quenching using ABT-126 (percent quench),1 uM abt (ABT-126),−11.77%
same,YFP fluorescence quenching using TC-6683 (percent quench),3 uM TC-6683,−18.611%
same,YFP fluorescence quenching (percent quench),10 uM ach (acetylcholine),−3.98%
same,YFP fluorescence quenching using TC-6683 (percent quench),30 uM TC-6683,−13.879%
same,YFP fluorescence quenching using TC-6683 (percent quench),100 uM TC-6683,−21.521%
same,YFP fluorescence quenching (percent quench),100 uM ach (acetylcholine),−10.34%
same,YFP fluorescence quenching (percent quench),300 uM ach (acetylcholine),−10.25%
same,YFP fluorescence quenching (percent quench),500 uM ach (acetylcholine),−11.46%
same,YFP fluorescence quenching (percent quench),1 mM ach (acetylcholine),1.77%
same,YFP fluorescence quenching (percent quench),3 mM ach (acetylcholine),36.81%
same,YFP fluorescence quenching (percent quench),10 mM ach (acetylcholine),74.02%
same,"YFP fluorescence quenching using Varenicline, 3 nM var",first column,34.923
same,"YFP fluorescence quenching using Varenicline, 3 nM var",second column,28.944
same,"YFP fluorescence quenching using Varenicline, 30 nM var",first column,42.214
same,"YFP fluorescence quenching using Varenicline, 30 nM var",second column,43.015
same,"YFP fluorescence quenching using Varenicline, 300 nM var",first column,47.059
same,"YFP fluorescence quenching using Varenicline, 300 nM var",second column,52.768
same,"YFP fluorescence quenching using Varenicline, 500 nM var",first column,59.542
same,"YFP fluorescence quenching using Varenicline, 500 nM var",second column,62.641
same,"YFP fluorescence quenching using Varenicline, 1 uM var",first column,71.449
same,"YFP fluorescence quenching using Varenicline, 1 uM var",second column,69.145
"COAD1055 (protein, synthetic sequence of chimeric LGIC) MRCSPGGVWLALAASLLHVSLQGEFQRKLYKELVKNYNPLERPVANDSQPLTVYFSLSLLQIMDVDEKNQVLTTNIWLQMSWTDHYLQWNVSEYPGVKTVWFPDGQIWKPDILLENSADERFDATFHTNVLVNSSGHCQYLPPGIFKSSCPMDLKNFPMDVQTCKLKFGSWSYGGWSLDLQMQEADISGYIPNGEWDLVGIPGKRSERFWECCKEPYPDVTFTVTMRRRMGYYLIQMYIPSLLIVILSWISFWINMDAAPARVGLGITTVLTMTTQSSGSRASLPKVSYVKAIDIWMAVCLLFVFSALLEYAAVNFVSRQHKELLRFRRKRRHHKSPMLNLFQEDEAGEGRFNFSAYGMGPACLQAKDGISVKGANNSNTTNPPPAPSKSPEEMRKLFIQRAKKIDKISRIGFPMAFLIFNMFYWIIYKIVRREDVHNQ",EC50,,23.5 nM
